What all share (assay): ELISA; wt or alanine-mutant E2 from 293T lysate captured by GNA on microtiter plates, amount normalised by CBH-17 binding; CD81-LEL added at 20 µg/ml; bound CD81-LEL detected with anti-CD81; percent relative to wt
Background: In an ELISA, binding on a coated surface is turned into a signal by an enzyme label.

Test [1] concerns the target H77C E1E2 mutant K446A (hepatitis C virus genotype 1a, isolate H77C).
The target of test [2] is H77C E1E2 mutant N428A (hepatitis C virus genotype 1a, isolate H77C).
The target of test [3] is H77C E1E2 mutant Y443A (hepatitis C virus genotype 1a, isolate H77C).

For “CD81 large extracellular loop fused to glutathione S-transferase (from UniProt P60033 1-236) (domain or fragment)”, the percent CD81 binding relative to wt is 83% in test [1], 10% in test [2] and 20% in test [3].

The record behind these values is publication PMC3325216.
